# Experimental data reported in PMC10726430 (Cell metabolism, 2023).
# B1: NSUN2-F1 (amino acid 1–767), recombinant NSUN2 protein (enzyme, human, UniProt Q08J23-1 1-767, looked up)
# chain: MGRRSRGRRLQQQQRPEDAEDGAEGGGKRGEAGWEGGYPEIVKENKLFEHYYQELKIVPEGEWGQFMDALREPLPATLRITGYKSHAKEILHCLKNKYFKELEDLEVDGQKVEVPQPLSWYPEELAWHTNLSRKILRKSPHLEKFHQFLVSETESGNISRQEAVSMIPPLLLNVRPHHKILDMCAAPGSKTTQLIEMLHADMNVPFPEGFVIANDVDNKRCYLLVHQAKRLSSPCIMVVNHDASSIPRLQIDVDGRKEILFYDRILCDVPCSGDGTMRKNIDVWKKWTTLNSLQLHGLQLRIATRGAEQLAEGGRMVYSTCSLNPIEDEAVIASLLEKSEGALELADVSNELPGLKWMPGITQWKVMTKDGQWFTDWDAVPHSRHTQIRPTMFPPKDPEKLQAMHLERCLRILPHHQNTGGFFVAVLVKKSSMPWNKRQPKLQGKSAETRESTQLSPADLTEGKPTDPSKLESPSFTGTGDTEIAHATEDLENNGSKKDGVCGPPPSKKMKLFGFKEDPFVFIPEDDPLFPPIEKFYALDPSFPRMNLLTRTTEGKKRQLYMVSKELRNVLLNNSEKMKVINTGIKVWCRNNSGEEFDCAFRLAQEGIYTLYPFINSRIITVSMEDVKILLTQENPFFRKLSSETYSQAKDLAKGSIVLKYEPDSANPDALQCPIVLCGWRGKASIRTFVPKNERLHYLRMMGLEVLGEKKKEGVILTNESAASTGQPDNDVTEGQRAGEPNSPDAEEANSPDVTAGCDPAGVHPPR
# Target: the molecule itself
# Test: native gel or EMSA
protein,measurement,value
B1,binding result,binds
